Source: US20180155451A1 (published 2018)
Substitutions are numbered along the chain they refer to. Names may count otherwise. Blank lines part the entries; values can stand above or below the binder they belong to.

Legend:
[1] = molecular target: T1, FcγRIa (human, UniProt P12314 16-292); test: SPR (Biacore4000), kinetic analysis
T1 construct: extracellular domain; also called FcgRIa; FcgRI; not shown: His tag attached to the C terminus
Method: The variants described above were assessed for their binding to FcγR according to the method described in Reference Example 8.
Analysis of interaction between obj ective antibody and the FcγR was carried out using Biacore T100 (GE Healthcare), Biacore T200, Biacore A100, and Biacore 4000. HBS-EP+ (GE Healthcare) was used as the running buffer, and the measurement temperature was set to 25° C. Chips produced by immobilizing the antigen peptide by the amine coupling method to a Series S sensor Chip CM5 (GE Healthcare), chips produced by allowing preliminarily biotinylated antigen peptides to interact with and immobilize onto a Series S Sensor Chip SA (certified) (GE Healthcare), chips produced by immobilizing Protein L (ACTIGEN, BioVision) to Series S Sencor Chip CM5 (GE Healthcare), or chips produced by immobilizing Protein A/G (Thermo Scientific) to Series S Sencor Chip CM5 (GE Healthcare) were used. Antibodies of interest were captured onto these chips, and allowed to interact to each FcγR diluted with running buffer. To regenerate and repeatedly use the chip, the antibodies captured onto the chip were washed off by reacting 10 mM glycine-HCl, pH 1.5.

[2] = molecular target: T2, FcγRIIIa F (human, UniProt P08637 17-208); test: SPR (Biacore), KD
T2 construct: extracellular domain; also called FcgRIIIa F; FcgRIIIaF; not shown: His tag attached to the C terminus

[3] = molecular target: T3, FcγRIIIa V (human, UniProt P08637 17-208); test: SPR (Biacore), KD
T3 construct: extracellular domain; also called FcgRIIIa V; FcgRIIIaV; not shown: His tag attached to the C terminus

[4] = molecular target: T4, FcγRIIIa (human, UniProt P08637 17-208); test: SPR (Biacore); KD of GpH7-TA7/GpH7-B78/GpL16-k0 for FcγRIIIa divided by the KD of this antibody
T4 construct: extracellular domain; The protein is soluble, His-tagged, and was expressed in FreeStyle293 cells; also called FcgRIIIa; CD16A; not shown: His tag attached to the C terminus
Method: (§1) Then, K334G was also assessed in the same manner. GpH7-TA40 (SEQ ID NO: 47) resulting from the introduction of K334G into GpH7-TA7 was constructed, and expressed and prepared in combination with GpH7-B78 according to the method described in Reference Example 1. Furthermore, GpH7-TA50 (SEQ ID NO: 48) resulting from the introduction of K334G into GpH7-B78 was constructed, and expressed and prepared in combination with GpH7-TA7 according to the method described in Reference Example 1. To assess the effect of combinations with K334G, the prepared antibodies were compared for the FcγRIIIa binding according to the method described in Reference Example 2 (Table 18).
Analysis of interaction between objective antibody and the FcγR was carried out using Biacore T100 (GE Healthcare). HBS-EP+ (GE Healthcare) was used as the running buffer, and the measurement temperature was set to 25° C. Chips produced by immobilizing the antigen peptide by the amine coupling method to a Series S Sencor Chip CM5 (GE Healthcare), or alternatively, chips produced by allowing preliminarily biotinylated antigen peptides to interact with and immobilize onto a Series S Sensor Chip SA (certified) (GE Healthcare) were used. Antibodies of interest were captured onto an antigen peptide-immobilized chip, and allowed to interact to each FcγR diluted with running buffer. […]
T4 sequence (P08637 17-208): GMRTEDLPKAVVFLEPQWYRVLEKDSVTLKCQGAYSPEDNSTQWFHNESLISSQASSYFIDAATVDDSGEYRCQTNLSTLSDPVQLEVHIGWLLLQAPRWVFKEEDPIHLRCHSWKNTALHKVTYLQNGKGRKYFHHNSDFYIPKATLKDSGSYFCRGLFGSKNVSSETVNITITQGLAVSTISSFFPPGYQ

[5] = molecular target: T4, FcγRIIIa; test: SPR (Biacore T100); antibody captured on an antigen peptide chip, FcγRIIIa as analyte; 1:1 Langmuir kinetic fit
Method: as §1
(§2) Analysis of interaction between objective antibody and the FcγR was carried out using Biacore T100 (GE Healthcare). HBS-EP+ (GE Healthcare) was used as the running buffer, and the measurement temperature was set to 25° C. Chips produced by immobilizing the antigen peptide by the amine coupling method to a Series S Sencor Chip CM5 (GE Healthcare), or alternatively, chips produced by allowing preliminarily biotinylated antigen peptides to interact with and immobilize onto a Series S Sensor Chip SA (certified) (GE Healthcare) were used. Antibodies of interest were captured onto an antigen peptide-immobilized chip, and allowed to interact to each FcγR diluted with running buffer. To regenerate and repeatedly use the chip, the antibodies captured on the chip were washed off by reacting 10 mM glycine-HCl, pH 1.5.

[6] = molecular target: T1, FcγRIa; test: SPR (Biacore), relative binding
Description: The constructed expression vectors were each combined with GpH7-A5 and GpL16-k0 to express heterodimerized antibodies, or they were combined with GpL16-k0 alone but not with other H chains to express homodimerized antibodies. These antibodies were expressed and purified according to the method described in Reference Example 1. The resulting purified antibodies are the following: the heterodimerized antibodies GpH7-A5/GpH7-B12/GpL16-k0, GpH7-A5/GpH7-B13/GpL16-k0, GpH7-A5/GpH7-B14/GpL16-k0, and GpH7-A5/GpH7-B15/GpL16-k0; and homodimerized antibodies GpH7-B12/GpL16-k0, GpH7-B13/GpL16-k0, GpH7-B14/GpL16-k0, and GpH7-B15/GpL16-k0. The prepared antibodies were used to assess the binding activity to each FcγR by the method described in Reference Example 2.
as §2

[7] = molecular target: T5, FcγRIIIa (human, UniProt P08637 17-208); test: SPR (Biacore), KD
T5 construct: extracellular domain; not shown: His tag attached to the C terminus
T5 sequence (P08637 17-208): as above

T1 sequence (P12314 16-292): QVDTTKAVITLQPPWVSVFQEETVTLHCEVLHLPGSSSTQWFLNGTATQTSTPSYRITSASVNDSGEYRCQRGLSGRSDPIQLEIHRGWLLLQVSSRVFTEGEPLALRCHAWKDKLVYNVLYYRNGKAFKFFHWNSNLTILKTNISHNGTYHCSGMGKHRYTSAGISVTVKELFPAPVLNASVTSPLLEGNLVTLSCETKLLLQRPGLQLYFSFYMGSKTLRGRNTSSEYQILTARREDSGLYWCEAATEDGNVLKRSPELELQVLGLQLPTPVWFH
T3 sequence (P08637 17-208 F176V limits assumed): as the sequence (P08637 17-208) above, with F160V counted along it
T2 sequence (P08637 17-208): as the sequence (P08637 17-208) above

B1: H240-Kn192/H240-Hl204/L73-k0 (antibody, human IgG1, kappa)
heavy 1: QDQLVQSGAEVKKPGASVKVSCKASGFNIKDTYIQWVRQAPGQGLEWMGRIDPLRKQTKYREKFEGRVTITADTSTNTAYMELSSLRSEDTAVYYCVRSGREFDYWGQGTLVTVSSASTKGPSVFPLAPSSKSTSGGTAALGCLVKDYFPEPVTVSWNSGALTSGVHTFPAVLQSSGLYSLSSVVTVPSSSLGTQTYICNVNHKPSNTKVDKKVEPKSCDKTHTCPPCPAPEYNWGPMVFLFPPKPKDTLMISRTPEVTCVVVDVSDEDPEVKFNWYVDGVEVHNAKTKPREKQYNATYRVVSVLTVLHQDWLNGKEYKCKVSNKDLPAPIEKTISKAKGQPREPQVCTLPPSRDELTKNQVSLWCLVKGFYPSDIAVEWESNGQPENNYKTTPPVLDSDGSFFLYSKLTVDKSRWQQGNVFSCSVMHEALHNHYTQKSLSLSP
heavy 2: QDQLVQSGAEVKKPGASVKVSCKASGFNIKDTYIQWVRQAPGQGLEWMGRIDPLRKQTKYREKFEGRVTITADTSTNTAYMELSSLRSEDTAVYYCVRSGREFDYWGQGTLVTVSSASTKGPSVFPLAPSSKSTSGGTAALGCLVKDYFPEPVTVSWNSGALTSGVHTFPAVLQSSGLYSLSSVVTVPSSSLGTQTYICNVNHKPSNTKVDKKVEPKSCDKTHTCPPCPAPELLTGPSVFLFPPKPKDTLMISRTPEVTCVVVDVSHEEPEVKFNWYVDGVEVHNAKTKPREEQYNSTYRVVSVLTVLHQDWLNGKEYKCKVSNDALPKPEEETISKAKGQPREPQVYTLPPSRCELTKNQVSLSCAVKGFYPSDIAVEWESNGQPENNYKTTPPVLDSDGSFFLVSKLTVDKSRWQQGNVFSCSVMHEALHNHYTQKSLSLSP
light: DIQMTQSPSSLSASVGDRVTITCRASQDIHKYIAWYQQKPGQAPRLLIQYTSTLQPGVPSRFSGSGSGTDYTFTISSLQPEDIATYYCLQYEQLRTFGGGTKVEIKRTVAAPSVFIFPPSDEQLKSGTASVVCLLNNFYPREAKVQWKVDNALQSGNSQESVTEQDSKDSTYSLSSTLTLSKADYEKHKVYACEVTHQGLSSPVTKSFNRGEC
notes: Y235N/E294K in H240-Kn120; G236T/I332E in H240-Hl068
koff [1]: < 5e-05 s⁻¹
fold enhancement of binding against the variant before introduction of I332E and Y235N [2]: 2 fold
fold enhancement of binding against the variant before introduction of I332E and Y235N [3]: 8 fold

B4: GpH7-B14/GpL16-k0 (antibody, human IgG1, kappa)
heavy: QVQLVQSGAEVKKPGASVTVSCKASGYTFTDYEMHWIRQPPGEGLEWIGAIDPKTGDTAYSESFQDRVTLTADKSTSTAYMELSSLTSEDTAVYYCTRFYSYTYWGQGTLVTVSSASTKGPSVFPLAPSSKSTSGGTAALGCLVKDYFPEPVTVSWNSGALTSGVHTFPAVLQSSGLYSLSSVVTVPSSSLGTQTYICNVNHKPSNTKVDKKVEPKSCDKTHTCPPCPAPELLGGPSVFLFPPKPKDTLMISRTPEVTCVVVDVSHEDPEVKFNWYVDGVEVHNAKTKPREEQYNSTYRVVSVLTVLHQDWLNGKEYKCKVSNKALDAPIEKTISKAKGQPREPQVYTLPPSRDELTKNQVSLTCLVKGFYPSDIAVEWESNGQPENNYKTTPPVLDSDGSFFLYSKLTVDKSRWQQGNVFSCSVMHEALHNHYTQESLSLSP
light: DIVMTQSPLSLPVTPGEPASISCQASESLVHSNRNTYLHWYLQKPGQSPQLLIYKVSNRFSGVPDRFSGSGSGTDFTLKISRVEAEDVGVYYCSQNTHVPPTFGQGTKVEIERTVAAPSVFIFPPSDEQLKSGTASVVCLLNNFYPREAKVQWKVDNALQSGNSQESVTEQDSKDSTYSLSSTLTLSKADYEKHKVYACEVTHQGLSSPVTKSFNRGEC
notes: P329D in both H chains
binding activity relative to GpH7-A5/GpH7-B3/GpL16-k0 [6]: ≤ 0.2 fraction of GpH7-A5/GpH7-B3/GpL16-k0

B6: GpH7-B15/GpL16-k0 (antibody, human IgG1, kappa)
heavy: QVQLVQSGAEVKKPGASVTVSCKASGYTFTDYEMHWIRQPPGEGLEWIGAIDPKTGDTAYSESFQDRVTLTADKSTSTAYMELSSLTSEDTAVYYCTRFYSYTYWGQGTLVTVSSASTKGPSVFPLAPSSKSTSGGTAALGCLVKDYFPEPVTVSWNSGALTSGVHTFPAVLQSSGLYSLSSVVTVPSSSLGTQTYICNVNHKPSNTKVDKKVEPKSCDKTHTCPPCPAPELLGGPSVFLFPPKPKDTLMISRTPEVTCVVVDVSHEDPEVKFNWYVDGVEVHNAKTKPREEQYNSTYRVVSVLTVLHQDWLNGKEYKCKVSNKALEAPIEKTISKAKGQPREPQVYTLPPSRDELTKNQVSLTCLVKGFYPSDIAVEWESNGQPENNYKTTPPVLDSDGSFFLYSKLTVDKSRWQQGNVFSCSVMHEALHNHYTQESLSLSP
light: B4 light
notes: P329E in both H chains
binding activity relative to GpH7-A5/GpH7-B3/GpL16-k0 [6]: ≤ 0.2 fraction of GpH7-A5/GpH7-B3/GpL16-k0

Other lines, results leading:

koff [1]: < 5e-05 s⁻¹
fold enhancement of binding against the variant before introduction of I332E and Y235N [2]: 2 fold
fold enhancement of binding against the variant before introduction of I332E and Y235N [3]: 8 fold
B2: H240-Kn193/H240-Hl204/L73-k0 (antibody, human IgG1, kappa)
heavy 1: B1 heavy 1 with K293R
heavy 2: B1 heavy 2
light: B1 light
notes: Y235N/E294R in H240-Kn120; G236T/I332E in H240-Hl068

KD ratio [4]: 0.5
Kd [5]: 7.5 nM
B3: GpH7-TA40/GpH7-B78/GpL16-k0 (antibody, human IgG1, kappa)
heavy 1: QVQLVQSGAEVKKPGASVTVSCKASGYTFTDYEMHWIRQPPGEGLEWIGAIDPKTGDTAYSESFQDRVTLTADKSTSTAYMELSSLTSEDTAVYYCTRFYSYTYWGQGTLVTVSSASTKGPSVFPLAPSSKSTSGGTAALGCLVKDYFPEPVTVSWNSGALTSGVHTFPAVLQSSGLYSLSSVVTVPSSSLGTQTYICNVNHKPSNTKVDKKVEPKSCDKTHTCPPCPAPEYLWGPSVFLFPPKPKDTLMISRTPEVTCVVVDVSHEDPEVKFNWYVDGVEVHNAKTKPREEQYNATYRVVSVLTVLHQDWLNGKEYKCKVSNKALPAPIEGTISKAKGQPREPQVYTLPPSRKELTKNQVSLTCLVKGFYPSDIAVEWESNGQPENNYKTTPPVLDSDGSFFLYSKLTVDKSRWQQGNVFSCSVMHEALHNRYTQKSLSLSP
heavy 2: B3 heavy 1 with Y232L, W234G, S237D, A296S, A328L, I330E, G332K, K354D, R433H, K437E
light: B4 light
notes: Heterodimerized anti-glypican-3 IgG1 antibody; K334G is in the same H chain as L234Y/G236W/S298A; also called TA40/B78

fold decrease of binding activity against GpH7-A57/GpH7-B78/GpL16-k0 [7]: 1.8 fold
B5: GpH7-A53/GpH7-B78/GpL16-k0 (antibody, human IgG1, kappa)
heavy 1: B3 heavy 1 with Y232L, W234G, S237D, A296S, G332K
heavy 2: B3 heavy 1 with Y232L, W234G, S237D, A296S, A328L, I330E, G332K, K354D, R433H, K437E
light: B4 light
notes: S239D in one H chain, S239D/A330L/I332E in the other

fold enhancement of binding against GpH7-A5/GpH7-B78/GpL16-k0 [7]: ≥ 10 fold
B7: GpH7-TA7/GpH7-B78/GpL16-k0 (antibody, human IgG1, kappa)
heavy 1: B3 heavy 1 with G332K
heavy 2: B3 heavy 1 with Y232L, W234G, S237D, A296S, A328L, I330E, G332K, K354D, R433H, K437E
light: B4 light
notes: L234Y/G236W/S298A in one H chain, S239D/A330L/I332E in the other
